# Results taken from paper PMC9351521 (Proceedings of the National Academy of Sciences of the …, 2022).
# Where “and” joins values, the source holds several entries; their conditions need not be identical. Equal entries are not always repeated.
# What was measured:
# Conditions in all cases: both partners purified
# RBD-Fc [1] = biological target: T1, RBD-Fc (SARS-CoV-2, wild-type RBD (P0DTC2 …)); assay: SPR; […]; Biacore T200, PBS pH 7.4 with 0.005% P20, 25 °C; 1:1 binding model; […]
# T1 construct: also called RBD (immobilized as RBD-Fc on the chip)
# RBD-Fc [2] = biological target: RBD-Fc (SARS-CoV-2, wild-type RBD (P0DTC2 …)); assay: SPR; Biacore T200, PBS pH 7.4 with 0.005% P20, 25 °C; […]; 1:1 binding model
# biotinylated RBD = biotinylated RBD (SARS-CoV-2, wild-type RBD (P0DTC2 …)); assay: SPR; Biacore T200, PBS pH 7.4 with 0.005% P20, 25 °C; […]
# [3] = biological target: T2, biotinylated RBD (wild type) (SARS-CoV-2, wild-type RBD (P0DTC2 …)); assay: SPR; […]; Biacore T200, PBS pH 7.4 with 0.005% P20, 25 °C; […]
# [4] = biological target: T2, biotinylated RBD (wild type); assay: SPR; […]; Biacore T200, PBS pH 7.4 with 0.005% P20, 25 °C; kinetic fit, 1:1 binding model; […]
binder,measurement,setting,value
H11-A10 (VHH) VHH: QVQLVESGGGLMQAGGSLRLSCAVSGRTFSTAAMGWFRQAPGKEREFVAAIRWSGGSAYYADSVKGRFTISRDKAKNTVYLQMNSLKYEDTAVYYCAGFSATRSLLSDYATWPYDYWGQGTQVTVSS,Kd,RBD-Fc [1],9.2 nM and 9.3 nM
same,koff,RBD-Fc [1],0.055 s⁻¹ and 0.047 s⁻¹
same,kon,RBD-Fc [1],5.9e+06 M⁻¹ s⁻¹ and 5e+06 M⁻¹ s⁻¹
nanobody H11-H6 (VHH) VHH: QVQLVESGGGLMQAGGSLRLSCAVSGRTFSTAAMGWFRQAPGKEREFVAAIRWSGGSAYYADSVKGRFTISRDKAKNTVYLQMNSLKYEDTAVYYCAGSKITRSLLSDYATWPYDYWGQGTQVTVSS,t1/2,RBD-Fc [2],25 s
H11-B5 (VHH) VHH: QVQLVESGGGLMQAGGSLRLSCAVSGRTFSTAAMGWFRQAPGKEREFVAAIRWSGGSAYYADSVKGRFTISRDKAKNTVYLQMNSLKYEDTAVYYCASYQATRSLLSDYATWPYDYWGQGTQVTVSS,Kd,RBD-Fc [1],8.8 nM and 7.6 nM
same,koff,RBD-Fc [1],0.051 s⁻¹ and 0.046 s⁻¹
same,kon,RBD-Fc [1],5.8e+06 M⁻¹ s⁻¹ and 6.1e+06 M⁻¹ s⁻¹
nanobody H11-A10 (VHH) VHH: QVQLVESGGGLMQAGGSLRLSCAVSGRTFSTAAMGWFRQAPGKEREFVAAIRWSGGSAYYADSVKGRFTISRDKAKNTVYLQMNSLKYEDTAVYYCAGFSATRSLLSDYATWPYDYWGQGTQVTVSS,t1/2,RBD-Fc [2],14 s
nanobody H11-H4 R52K (VHH) VHH: QVQLVESGGGLMQAGGSLRLSCAVSGRTFSTAAMGWFRQAPGKEREFVAAIKWSGGSAYYADSVKGRFTISRDKAKNTVYLQMNSLKYEDTAVYYCAQTHYVSYLLSDYATWPYDYWGQGTQVTVSS,binding result,biotinylated RBD,no binding
nanobody H11-H4 R52A (VHH) VHH: QVQLVESGGGLMQAGGSLRLSCAVSGRTFSTAAMGWFRQAPGKEREFVAAIAWSGGSAYYADSVKGRFTISRDKAKNTVYLQMNSLKYEDTAVYYCAQTHYVSYLLSDYATWPYDYWGQGTQVTVSS,binding result,biotinylated RBD,no binding
nanobody H11-H4 R52E (VHH) VHH: QVQLVESGGGLMQAGGSLRLSCAVSGRTFSTAAMGWFRQAPGKEREFVAAIEWSGGSAYYADSVKGRFTISRDKAKNTVYLQMNSLKYEDTAVYYCAQTHYVSYLLSDYATWPYDYWGQGTQVTVSS,binding result,biotinylated RBD,no binding
H11-H4 Y104S (VHH) VHH: QVQLVESGGGLMQAGGSLRLSCAVSGRTFSTAAMGWFRQAPGKEREFVAAIRWSGGSAYYADSVKGRFTISRDKAKNTVYLQMNSLKYEDTAVYYCAQTHYVSSLLSDYATWPYDYWGQGTQVTVSS,Kd,[3],273 nM
H11-H4 Y101A (VHH) VHH: QVQLVESGGGLMQAGGSLRLSCAVSGRTFSTAAMGWFRQAPGKEREFVAAIRWSGGSAYYADSVKGRFTISRDKAKNTVYLQMNSLKYEDTAVYYCAQTHAVSYLLSDYATWPYDYWGQGTQVTVSS,Kd,[3],791 nM
H11 V101Y R103S (VHH) VHH: QVQLVESGGGLMQAGGSLRLSCAVSGRTFSTAAMGWFRQAPGKEREFVAAIRWSGGSAYYADSVKGRFTISRDKAKNTVYLQMNSLKYEDTAVYYCAQTRYTSSLLSDYATWPYDYWGQGTQVTVSS,Kd,[3],1700 nM
H11-H4 Y104F (VHH) VHH: QVQLVESGGGLMQAGGSLRLSCAVSGRTFSTAAMGWFRQAPGKEREFVAAIRWSGGSAYYADSVKGRFTISRDKAKNTVYLQMNSLKYEDTAVYYCAQTHYVSFLLSDYATWPYDYWGQGTQVTVSS,Kd,[4],37.4 nM and 33.2 nM
same,koff,[4],0.072 s⁻¹ and 0.074 s⁻¹
same,kon,[4],1.9e+06 M⁻¹ s⁻¹ and 2.2e+06 M⁻¹ s⁻¹
nanobody H11-B5 (VHH) VHH: QVQLVESGGGLMQAGGSLRLSCAVSGRTFSTAAMGWFRQAPGKEREFVAAIRWSGGSAYYADSVKGRFTISRDKAKNTVYLQMNSLKYEDTAVYYCASYQATRSLLSDYATWPYDYWGQGTQVTVSS,t1/2,RBD-Fc [2],14 s
H11-H6 (VHH) VHH: QVQLVESGGGLMQAGGSLRLSCAVSGRTFSTAAMGWFRQAPGKEREFVAAIRWSGGSAYYADSVKGRFTISRDKAKNTVYLQMNSLKYEDTAVYYCAGSKITRSLLSDYATWPYDYWGQGTQVTVSS,Kd,RBD-Fc [1],8.1 nM and 8.3 nM
same,koff,RBD-Fc [1],0.032 s⁻¹ and 0.025 s⁻¹
same,kon,RBD-Fc [1],3.9e+06 M⁻¹ s⁻¹ and 3e+06 M⁻¹ s⁻¹
H11-H4 Q98R H100E (D4 hybrid) (VHH) VHH: QVQLVESGGGLMQAGGSLRLSCAVSGRTFSTAAMGWFRQAPGKEREFVAAIRWSGGSAYYADSVKGRFTISRDKAKNTVYLQMNSLKYEDTAVYYCARTEYVSYLLSDYATWPYDYWGQGTQVTVSS,Kd,[4],4.3 nM and 4.8 nM
same,koff,[4],0.024 s⁻¹ and 0.025 s⁻¹
same,kon,[4],5.5e+06 M⁻¹ s⁻¹ and 5.2e+06 M⁻¹ s⁻¹
